Results as given in US7838288B2, “Modulators of odorant receptors” (Duke University, priority 2004, dated 2010).
Blank lines part the entries; values can stand above or below the molecule they belong to.

How the values were obtained:
[1] = test system: olfr62; assay: Living-cell staining of cell-surface olfr62; assay type: cell-based, mouse
Protocol: The proteins encoded by these clones were named REEP1, for Receptor Expression Enhancing Protein 1 and RTP1, for Receptor Transporting Protein 1. Subsequently, RTP2 was found, a close relative of RTP1. […] Next, REEP1, RTP1, and RTP2 were tested to detect a similar effect in promoting cell-surface expression of other ORs. Four different ORs (mouse OREG, mouse olfr62, mouse OR-S46 and rat I7) were expressed in 293T cells with or without REEP1, RTP1, or RTP2. […] Additionally, ORs transfected with REEP and/or RTP generated more immunofluorescent cells and stronger signals in positive cells compared with ORs without REEP and/or RTP (see FIG. 2A). The signal intensity and the number of immunopositive cells varied when using different ORs at each condition. […] Nonetheless, occasional immunopositive cells were observed only when the accessory proteins were co-expressed. The effects of RTP1 or RTP2 were consistently more robust than that of REEP1. The enhancement of cell-surface expression was specific for ORs and not for other GPCRs: neither REEP and/or RTP enhanced expression of the β2 adrenergic receptor, mT2R5 (a mouse bitter taste receptor) (see, e.g., Chandrashekar, J., et al. (2000) Cell 100, 703-711; herein incorporated by reference in its entirety), or a V2R pheromone receptor (VR4) (see, e.g., Matsunami, H., and Buck, L. B. (1997) Cell 90, 775-784; herein incorporated by reference in its entirety) (see FIG. 2A and FIG. 3). Finally, enhancement of cell-surface expression of MOR203-1 was not observed when other members of the REEP and RTP families (REEP2 and RTP4) were co-expressed.
293T cells were maintained in minimal essential medium containing 10% fetal bovine serum (M10). Lipofectamine 2000 (Invitrogen) was used for transfection. In live-cell staining, 16 hours after transfection, cells were incubated in M10 containing anti rhodopsin antibody, 4D2 (see, e.g., Laird, D. W., and Molday, R. S. (1988) Invest Opthalmol V is Sci 29, 419-428; herein incorporated by reference in its entirety) and 15 mM NaN3 at 4 degrees C. for 1 hour. After washing, cells were incubated with Cy3-conjugated anti mouse IgG (Jackson Immunologicals), washed and mounted. For FACS analysis, 4D2 and PE-conjugated anti mouse IgG (Jackson Immunologicals) were used to monitor the Rho tagged receptor expression. Anti HA rabbit antibodies (Sigma) and Alexa 488 conjugated anti rabbit IgG (Molecular Probes) was used to stain the HA-β2 adrenergic receptor. To establish the Hana3a cells, 1 ug/ml of puromycin was used for selection. 96 colonies were picked and assayed using luciferase assay using OREG.

[2] = test system: MOR203-1; assay: Co-immunoprecipitation with HA-tagged MOR203-1; assay type: binding, mouse; details: Flag-tagged protein, 293T cells, HA-MOR203-1 precipitated
Protocol: Given the ability of REEP and/or RTP to promote cell-surface expression of ORs, it was hypothesized that they may also interact with OR proteins. This was assessed using co-immunoprecipitation assays. HA-tagged MOR203-1 and Flag-tagged REEP1, RTP1 or ICAP-1, a negative control (see, e.g., Zawistowski, J. S., et al. (2002) Hum Mol Genet. 11, 389-396; herein incorporated by reference in its entirety) were transfected in 293T cells. After the cell extracts were precipitated with anti-Flag antibodies, proteins were eluted in SDS-sample buffer at room temperature whereupon western blotting analysis was performed to detect the OR proteins. OR proteins were detected as high molecular weight bands after precipitation of REEP1 or RTP1 (see FIG. 7B, lanes 1 and 2). […] The present invention is not limited to a particular mechanism. Indeed, an understanding of the mechanism is not necessary to practice the present invention.
293T cells in 100 mm dishes were transfected with ORs, REEP1, and/or RTP1 cDNAs. 16 hours after transfection, cells were lysed in lysis buffer (50 mM Tris (7.4), 150 mM NaCl, 1% NP-40, 0.5 mM PMSF, 2 mM Benzamidene, 0.5 ug/ml Leupeptin, 1.4 ug/ml pepstatin A, 2.4 ug/ml chymostatin, 15 ug/ml aprotinin, 1 mM sodium orthovanadate). The lysis were incubated with anti-Flag M2 affinity gel (Sigma) or anti-HA affinity matrix (Roche) for 2 hours at 4 degrees C. and washed with lysis buffer. Subsequently, the bound proteins were eluted by incubation with SDS sample buffer at room temperature for 2 hours. SDS-PAGE and western blotting were performed according to Mini-Protean 3 Cell (Bio-Rad) instruction manual. ECL (Amersham) was used for detecting proteins on membranes.

[3] = test system: olfr62; assay: CRE-luciferase reporter gene assay, olfr62; assay type: cell-based, mouse; details: 293T cells and Hana3A cells expressing RTP1 variant
Protocol: Four ORs (S6/79, S18, S46 and S50) previously assayed using other techniques (see, e.g., Malnic, B., et al. (1999) Cell 96, 713-723; herein incorporated by reference in its entirety) were tested against an assay panel of aliphatic alcohols, aldehydes and acids and some other odorants. Additionally, five “orphan” class I ORs (MOR23-1, MOR31-4, MOR31-6, MOR32-5 and MOR32-11) whose cognate ligands were unknown were tested. At a suprathreshold concentration of 100 uM, all these ORs were odorant selective, responding to only a small subset of the odorants tested (see FIG. 11A). This specificity was retained at lower, more physiologically relevant concentrations. Many of these ORs responded to odorants present in micromolar concentrations. The cell-surface expression of these ORs by living-cell immunofluorescence were evaluated. Some ORs (S18, MOR31-4, MOR31-6 and MOR32-5) were strongly expressed while other ORs (S6, S50, MOR23-1, MOR32-11) were weakly expressed (see FIG. 12). The present invention is not limited to a particular mechanism. Indeed, an understanding of the mechanism is not necessary to practice the present invention. […] Finally, two additional orphan class II ORs, MOR203-1 and olfr62, were tested against a panel of 139 odorants. […] Olfr62 responded to coumarine and piperonal (see FIG. 11C). […] When parental 293T cells for these ORs were used in this luciferase assay, little or no response to the odorants was observed. The present invention is not limited to a particular mechanism. Indeed, an understanding of the mechanism is not necessary to practice the present invention.
Dual-Glo system (Promega) for luciferase assay was used. CRE-Luciferase (Stratagene) was used to measure the receptor activities. Renilla luciferase driven by constitutively active SV40 promoter (pRL-SV40: Promega) was used as an internal control. Cells were plated on poly-D-lysine coated 96 well plates (BIOCOAT, Beckton Dickinson). After 8 hours (for experiments shown in FIGS. 8B and 8C) or 12 hours (for experiments shown in FIG. 8D and FIG. 11) after transfection, the medium was replaced with CD293 chemically defined medium (Invitrogen) and the plates were incubated for one hour at 37 degrees C. The medium was replaced with 50 ul of odorant solutions dissolved in CD293 and incubated for 10 hours (for experiments shown in FIGS. 8B and 8C) or 4 hours (for experiments shown in FIG. 8D and FIG. 11) at 37 degrees C. The manufacture's protocol for measuring luciferase and Renilla luciferase activities was followed. Luminescence was measured using Wallac Victor 1420 (Perkin-Elmer). Normalized luciferase activity was calculated as [Luc (N)-Luc (0)]/RL (N), where Luc (N)=Luminescent count of a certain well, Luc (0)=Luminescent count without odorant for each OR, and RL (N)=Luminescent count of Renilla Luciferase of each well. For cAMP assays, cells were plated onto 24-well plate. […]. Prism software (Graphpad) was used for data analysis. […]

[4] = accessory protein co-transfected in 293T cells

B1: RTP1-D1: RTP1 variant from deleting portions of RTP1-D; murine SEQ ID NO: 48 (protein, listed as Mus musculus)
chain: MRIFRPWRLRCPALHLPSFPTFSIKCSLPPLPTDEDMCKSVTTGEWKKVFYEKMEEVKPADSWDFIIDPNLKHNVLAPGWKQYLELHASGRFHCSWCWHTWQSPHVVILFHMYLDKAQRAGSVRMRVFKQLCYECGTARLDESSMLEENIESLVDNLITSLREQCYGERGGHYRIHVASRQDNRRHRGEFCEACQEGIVHWKPSEKLLEEEA
cell-surface expression of olfr62 [1, 4]: Increased cell-surface staining

B2: RTP1-D3: RTP1 variant from deleting portions of RTP1-D; murine SEQ ID NO: 50 (protein, listed as Mus musculus)
chain: MRIFRPWRLRCPALHLPSFPTFSIKCSLPPLPTDEDMCKSVTTGEWKKVFYEKMEEVKPADSWDFIIDPNLKHNVLAPGWKQYLELHASGRFHCSWCWHTWQSPHVVILFHMYLDKAQRAGSVRMRVFKQLCYECGTARLDESSMLEENIESLVDNLITSLREQCYGERGGHYRIHVASRQDNRRHRGEFCEACQEGIVHWKPSEKLLEEEATTYTFSRAPSPTKPQAETGSGCNFCSIPWCLFWATVLMLII
cell-surface expression of olfr62 [1, 4]: Increased cell-surface staining

B3: ICAP-1: a negative control protein, Flag-tagged (protein, UniProt O14713 1-200, looked up)
Integrin beta-1-binding …: MFRKGKKRHSSSSSQSSEISTKSKSVDSSLGGLSRSSTVASLDTDSTKSSGQSNNNSDTCAEFRIKYVGAIEKLKLSEGKGLEGPLDLINYIDVAQQDGKLPFVPPEEEFIMGVSKYGIKVSTSDQYDVLHRHALYLIIRMVCYDDGLGAGKSLLALKTTDASNEEYSLWVYQCNSLEQAQAICKVLSTAFDSVLTSEKP
modifications: Flag tag
notes: a negative control protein, Flag-tagged
co-precipitation with HA-MOR203-1 [2]: not detectable

OLFR62 activity as indicated by luciferase expression [3]: Increased enhancement
B4: RTP1-D: RTP1 variant generated by deleting portions of RTP1; murine SEQ ID NO: 44 (protein, listed as Mus musculus)
chain: MRIFRPWRLRCPALHLPSFPTFSIKCSLPPLPTDEDMCKSVTTGEWKKVFYEKMEEVKPADSWDFIIDPNLKHNVLAPGWKQYLELHASGRFHCSWCWHTWQSPHVVILFHMYLDKAQRAGSVRMRVFKQLCYECGTARLDESSMLEENIESLVDNLITSLREQCYGERGGHYRIHVASRQDNRRHRGEFCEACQEGIVHWKPSEKLLEEEATTYTFSRAPSPTKPQAETGSGC
cell-surface expression of olfr62 ([1]; RTP1 variant cDNA transfected into Hana3A cells or 293T cells): Increased cell-surface staining
